Assay results reported in publication PMC3634753, “A Study of the Mechanism of the Chaperone-like Function of an scFv of Human Creatine Kinase by Computer Simulation” (PLoS ONE, 2013).

Tests used:
Assay in all cases: peptide or protein array; 12-mer HCK peptides, each shifted by one residue, synthesized as spots on nitrocellulose membrane; incubated with purified scFv-A4 in MP buffer (30 mM Tris-HCl, pH 7.6, 170 mM NaCl, 6.4 mM KCl, 0.05% Tween 20, 5% sucrose) overnight at 4°C; bound scFv electro-transferred onto PVDF and detected with anti-V5 antibody
Conditions in all cases: both partners purified
[1] = molecular target: T1, HCK peptide segment Ser129-Lys138 (Homo sapiens, UniProt P06732)
T1 construct: human creatine kinase (HCK), segment Ser129-Lys138 covered by the positive 12-mer spots E3-E13; Each spot held a 12-mer shifted by one residue; also called spots E3-E13; source: synthetic peptide, synthesized on nitrocellulose membrane as spots
T1 chain: SRVRTGRSIK

[2] = molecular target: T2, HCK peptide segment Glu248-Leu257 (Homo sapiens, UniProt P06732)
T2 construct: human creatine kinase (HCK), segment Glu248-Leu257 covered by the positive 12-mer spots I3-I12; Each spot held a 12-mer shifted by one residue; also called spots I3-I12; source: synthetic peptide, synthesized on nitrocellulose membrane as spots
T2 chain: EVFRRFCVGL

[3] = molecular target: T3, HCK peptide segment Lys265-Asn274 (Homo sapiens, UniProt P06732)
T3 construct: human creatine kinase (HCK), segment Lys265-Asn274 covered by the positive 12-mer spots I22-I29; Each spot held a 12-mer shifted by one residue; also called spots I22-I29; source: synthetic peptide, synthesized on nitrocellulose membrane as spots
T3 chain: KKAGHPFMWN

[4] = molecular target: T4, HCK peptide segment Lys170-Met179 (Homo sapiens, UniProt P06732)
T4 construct: human creatine kinase (HCK), segment Lys170-Met179 covered by the positive 12-mer spots F17-F21; Each spot held a 12-mer shifted by one residue; also called spots F17-F21; source: synthetic peptide, synthesized on nitrocellulose membrane as spots
T4 chain: KGKYYPLKSM

[5] = molecular target: T5, HCK peptide segment Asn5-Tyr14 (Homo sapiens, UniProt P06732)
T5 construct: human creatine kinase (HCK), segment Asn5-Tyr14 covered by the positive 12-mer spots A2-A6; Each spot held a 12-mer shifted by one residue; also called spots A2-A6; source: synthetic peptide, synthesized on nitrocellulose membrane as spots
T5 chain: NTHNKFKLNY

[6] = molecular target: T6, HCK peptide segment Thr313-Thr322 (Homo sapiens, UniProt P06732)
T6 construct: human creatine kinase (HCK), segment Thr313-Thr322 covered by the positive 12-mer spots K5-K14; Each spot held a 12-mer shifted by one residue; also called spots K5-K14; source: synthetic peptide, synthesized on nitrocellulose membrane as spots
T6 chain: TRLRLQKRGT

Measured: binding result

B1: scFv-A4 (scFv, V domains shown)
VH: QVQLVQSGAEVKKPGSSVRVSCKASGGTFSSYAISWVRQAPGQGPEWMGGIIPIFGTANYAQKFQGRVTITADESTSTAYMELSSLRSEDTAVYYCAGSSGWSMSAFDIWGQGTMVTVSS
VL: SSELTQPPSVSVAPGKTARITCGGNNIGSKSVHWYQQKPGQAPVLVIYYDSDRPSGIPERFSGSNSGNTATLTISRVEAGDEADYYCQVWDSSSDHVVFGGGTKLTVL
notes: linker segment GLY112-LYS142; without the linker, the light chain is 100% and the heavy chain 93% identical to the Fab of PDB 2DD8; also called anti-human creatine kinase single chain antibody
binds: all assays above
